Where a chain is given by its changes, count along the chain named.
B1: 419D9 (antibody, human IgG1, kappa, V domains shown)
VH: QSLEESGGDLVKPGASLTLTCTASGFSFSSRHYMCWVRQAPGEGLEWIACIYTGSSGTPHYASWAKGRFTISQTSSTTVTLQMTSLTAADTATYFCSSEGNLWGPGTLVTVSS
VL: AQVLTQTASPVSAAVGGTVTINCQSSQSVYSNWLSWYQQKPGQPPKRLIYSASTLASGVPSRFKGSGSGTQFTLTISDLECDDAATYYCAGGYNTVTDTFAFGRGTEVEVKR
notes: one of the 34 chimeric antibodies; rabbit variable regions on human IgG1 and human kappa; also called 419D9 chimeric rabbit/human IgG
B2: 416G1 (antibody, human IgG1, kappa, V domains shown)
VH: QSVEESGGRLVTPGTPLTLTCTVSGFTINSYHMIWVRQAPGEGLEYIGFINDGGFTYYASWAKGRFIISRTSTTVDLKMTSLTVADTATYFCARGVDGTSYPDLWGPGTLVTVSS
VL: DVVMTQTPASVSEPVGGAVTIKCQASQSIGSDLAWYQQKPGQPPKLLIYRASTLASGVSSRFKGSGSGTEFTLTISDLECADAATYYCQCIYYGSDDVIYHTFGGGTEVVVKR
notes: one of the 34 chimeric antibodies; rabbit variable regions on human IgG1 and human kappa; also called 416G1 chimeric rabbit/human IgG
B3: 418E10 (antibody, human IgG1, kappa, V domains shown)
VH: QSLEESGGRLVTPGTPLTLTCTASDFSLSTYYMSWVRQAPGKGLEWIGSIYDSGAAYYATWAKGRFTISRTSTTVDLRMTSLTAADTATYFCARDPINNAIWGQGTLVTVSS
VL: ALVMTQTPSPVSAAVGGTVTINCQASQSIGSNLNWYQQKPGQPPKLLIYYVSTLASGVPSRFKGSGSGTEYTLTISGVQCDDAATYYCLGVWNYWGDDGTAFGGGTEVEVKR
notes: one of the 34 chimeric antibodies; rabbit variable regions on human IgG1 and human kappa; also called 418E10 chimeric rabbit/human IgG
B4: 418E4 (antibody, human IgG1, kappa, V domains shown)
VH: B3 VH with D25E, T30S, D52A, A55S, T60S, R78K, A93V, A100D, Q104P
VL: B3 VL with G30A, S31T, V51T, T53S, K63S, Y71F, V110F
notes: one of the 34 chimeric antibodies; rabbit variable regions on human IgG1 and human kappa; also called 418E4 chimeric rabbit/human IgG
B5: 420H6 (antibody, human IgG1, kappa, V domains shown)
VH: QQQLEESGGGLVKPGGTLTLTCKASGIDFSSSYYMCWVRQAPGEGLEWIACIYTGGSGTPHYASWAKGRFTISQTSSTTVTLQMTSLTAADTATYFCAREGSLWGQGTLVTVSS
VL: B1 VL with S25A, T97I, R104G, V110F
notes: one of the 34 chimeric antibodies; rabbit variable regions on human IgG1 and human kappa; also called 420H6 chimeric rabbit/human IgG
B6: 459F1 (antibody, human IgG1, kappa, V domains shown)
VH: ESLEESGGDLVKPGASLTLTCTASGIDFSRRYYMCWVRQAPGKGLEWIACMYTGSRDTPHYASWAKGRFTISQTSSTTVTLQMTSLTAADTATYFCAREGNLWGPGTLVTVSS
VL: B1 VL with L34F, R47L, R104G, V110F
notes: one of the 34 chimeric antibodies; rabbit variable regions on human IgG1 and human kappa; also called 459F1 chimeric rabbit/human IgG
B7: 460C3 (antibody, human IgG1, kappa, V domains shown)
VH: B6 VH with E1Q, M51I, N101S, P105Q
VL: B1 VL with A8P, P10S, T20S, N22S, L34F, R47L, T97I, R104G, V110F
notes: one of the 34 chimeric antibodies; rabbit variable regions on human IgG1 and human kappa; also called 460C3 chimeric rabbit/human IgG
B8: 472E4 (antibody, human IgG1, kappa, V domains shown)
VH: QSLEESGGRLVTPGGSLTLTCTVSGFSLNNNAISWVRQAPGKGLEWVAIIQNTGTTDYARWAKGRFTISKTSTTVDLKINSPTTEDTATYFCGRGYGFESELVIWGPGTLVTVSS
VL: AAVLTQTPSSTSAAVGGTVTISCQSSQSVYNNNALAWYQKKPGQPPKLLIYLASTLASGVPSRFSGSGSGTQFTLTISDLECDDAATYYCLGVYNDDVDNGFGGGTEVVFKR
notes: one of the 34 chimeric antibodies; rabbit variable regions on human IgG1 and human kappa; also called 472E4 chimeric rabbit/human IgG
B9: 418H5 (antibody, human IgG1, kappa, V domains shown)
VH: QSLEESGGRLVTPGTPLTLTCTVSGIDLSAYHMSWVRQAPGKGLEYIGMIGSSGTIHYANWAKGRFTISKTSTTVDLKITSPTTEDTATYFCARDSYNSDYAFNLWGPGTLVTVSS
VL: AQVLTQTPASVSATVGSTVTISCQSSPSVYKNNQLAWYQQKPGQPPKLLIYLASTLASGVPSRFKGSGSGTEFTLTISDLECADAATYYCAGGYSSSSDTAFGGGTEVEVKR
notes: one of the 34 chimeric antibodies; rabbit variable regions on human IgG1 and human kappa; also called 418H5 chimeric rabbit/human IgG
B10: 411H11 (antibody, human IgG1, kappa, V domains shown)
VH: B2 VH with N29S, Y31H, E45Q, G54D, F55Y, A59T, S60N, I67T, V84A, D103G
VL: B2 VL with G16R, G17A, A18T, S31A, S59P, K63S, S95T, V111F
notes: one of the 34 chimeric antibodies; rabbit variable regions on human IgG1 and human kappa; also called 411H11 chimeric rabbit/human IgG
B11: 416F8 (antibody, human IgG1, kappa, V domains shown)
VH: QSLEESGGRLVTPGTPLTLTCTASGFSLSNYYMNWVRQAPGKGLEYIGIISSSGSAYYASWAKGRFTISRTSTTVDLRITSPTTEDTATYFCARGDYGMDLWGQGTLVTVSS
VL: AQVLTQTASSVSAPVGGTVTISCQSSQTVYNNNLLSWYQQKPGQRPKLLIYYASTLAFGVPSRFKGSGSGTEFTLTISDLECDDAATYFCQGGYSGWIYVFGGGTEVEVKR
notes: one of the 34 chimeric antibodies; rabbit variable regions on human IgG1 and human kappa; also called 416F8 chimeric rabbit/human IgG
B12: 420H5 (antibody, human IgG1, kappa, V domains shown)
VH: QSLEESGGDLVKPGASLTLTCTASGFSFSSNYWICWVRQAPGKGLEWIACIYVGSSGDTYYASWAKGRFTISKTSSTTVTLQMTSLTAADTATYFCARDSSSYYMFNLWGQGTLVTVSS
VL: ALVMTQTPASVSAAVGGTVTINCQASEDIDTYLAWYQQKPGQPPKLLIFYASDLASGVPSRFKGSGSGTEFTLTISGVQCDDAATYYCQGGYYTSSADTRGAFGGGTEVVVKR
notes: one of the 34 chimeric antibodies; rabbit variable regions on human IgG1 and human kappa; also called 420H5 chimeric rabbit/human IgG
B13: 470C6 (antibody, human IgG1, kappa, V domains shown)
VH: B12 VH with S6A, S29T, N31S, W33Y, I34M, V53T, D58S, S63N
VL: B12 VL with T31N, K63S, E70Q, A97T
notes: one of the 34 chimeric antibodies; rabbit variable regions on human IgG1 and human kappa; also called 470C6 chimeric rabbit/human IgG
B14: 466F6 (antibody, human IgG1, kappa, V domains shown)
VH: RSLEESGGRLVTPGTPLTLTCTASGFTISSYHMQWVRQAPGKGLEYIGTISSGGNVYYASWARGRFTISRPSSTTVDLKMTSLTTEDTATYFCARDSGYSDPMWGPGTLVTVSS
VL: DVVMTQTPASVSEPVGGTVTIKCQASQNIRTYLSWYQQKPGQRPKLLIYAAANLASGVPSRFSGSRSGTEFTLTISDLECADAATYYCQCTYLGTDYVGGAFGGGTEVEFKR
notes: one of the 34 chimeric antibodies; rabbit variable regions on human IgG1 and human kappa; also called 466F6 chimeric rabbit/human IgG
B15: 413F3 (antibody, human IgG1, kappa, V domains shown)
VH: QSLEESGGDLVKPEGSLTLTCTGSGIDFSSNYMCWVRQAPGKGLEWIACIYGDSSDNSYSASWAKGRFTISKTSSTTVTLQMTSLTAADTATYFCARSGYSYLGYFNLWGPGTLVTVSS
VL: DVVMTQTPASVEAAVGGTVTIKCQASQSIYSNLAWYQQKPGQPPKLLIYSTSTLASGVPSRFSGSGSGTEFTLTISDLECADAATYYCQNYYGSSTDSYGNPFGGGTEVVFKR
notes: one of the 34 chimeric antibodies; rabbit variable regions on human IgG1 and human kappa; also called 413F3 chimeric rabbit/human IgG

What follows are binders tested against T1, recombinant cynomolgus 4-1BB extracellular domain protein (cynomolgus, UniProt A9YYE7 24-186) (assay: Octet BLI; chimeric IgG from transfection supernatant on anti-human Fc biosensor; recombinant cynomolgus 41BB; column kdis(1/s) Cynomolgus).
T1 construct: Analyte in the Octet assay
T1 sequence: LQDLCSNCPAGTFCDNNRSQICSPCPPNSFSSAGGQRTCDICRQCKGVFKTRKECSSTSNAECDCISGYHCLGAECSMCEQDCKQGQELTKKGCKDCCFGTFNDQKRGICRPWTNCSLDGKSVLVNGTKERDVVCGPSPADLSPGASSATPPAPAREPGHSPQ
Source text: (§1) The heavy and light chain expression plasmids generated from each well were transiently co-transfected to produce rabbit/human chimeric antibodies. Recombinant antibody supernatants were confirmed to contain antibodies specific for human and cynomolgus 4-1BB using bio-layer interferometry analysis on a ForteBio Octet Red 96 instrument. Anti-human Fc biosensors (Pall ForteBio) were used to capture antibodies in the supernatants. Association to human or cynomolgus 4-1BB was observed by real-time interferometry by placing the biosensors in wells containing recombinant human or cynomolgus 4-1BB extracellular domain protein. Dissociation was measured after transfer of the biosensors into wells containing 10× kinetics buffer (Pall ForteBio). The software provided by the manufacturer was used to analyze the interferometry data. A summary of the primary BCC screening data and the corresponding screening data for 34 recombinant chimeric rabbit/human IgG antibodies is shown in FIG. 2.

Row | Binder | koff [s⁻¹]
1 | B1 | 0.0014
2 | B2 | 0.0019
3 | B3 | 0.0015
4 | B4 | 0.005
5 | B5 | 0.002
6 | B6 | 0.0075
7 | B7 | 0.0041
8 | B8 | 0.0018
9 | B9 | 0.0016
10 | B10 | 0.0015
11 | B11 | 0.003
12 | B12 | 0.0023
13 | B13 | 0.0014
14 | B14 | 0.0026
15 | B15 | 0.00079

Each binder was assayed against T2, recombinant human 4-1BB extracellular domain protein (human, UniProt Q07011 24-186) (assay: Octet BLI; chimeric IgG from transfection supernatant on anti-human Fc biosensor; recombinant human 41BB; column kdis(1/s) Human).
T2 construct: extracellular domain; Analyte in the Octet assay; also called CD137; TNFRSF9
Source text: as §1

Row | Binder | koff [s⁻¹]
16 | B1 | 0.00063
17 | B2 | 0.0014
18 | B3 | 0.0011
19 | B4 | 0.0036
20 | B5 | 0.00094
21 | B6 | 0.00075
22 | B7 | 0.00067
23 | B8 | 0.0011
24 | B9 | 0.0014
25 | B10 | 0.001
26 | B11 | 0.0043
27 | B12 | 0.0013
28 | B13 | 0.001
29 | B14 | 0.0021
30 | B15 | 0.00054

Reference: patent publication US20210188989A1 (SYSTIMMUNE, published 2021)
